Reference: patent US20190275125A1 (H LUNDBECK A S, published 2019)

How the values were obtained:
Assay in all cases: MSD inhibition assay, abeta 1-28 coated plates
Met-var24 = molecular target: Met-var24
Var24 = molecular target: Var24
[1] = molecular target: T1, abeta 1-12 trimer construct (UniProt P05067 672-683; P05067 672-683; P05067 672-683)
T1 construct: range 1-12
T1 sequence (peptide): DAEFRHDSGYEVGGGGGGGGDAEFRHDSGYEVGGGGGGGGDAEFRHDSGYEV

Measured: binding result

B1: Biosimilar (BS) bapineuzumab (antibody, V domains shown)
VH: EVQLVESGGGLVQPGGSLRLSCAGSGFTFSNYGMSWVRQAPGKGLEWVASIRSGGGRTYYSDNVKGRFTISRENAKNSLYLQMNSLRAEDTAVYYCVRYDHYSGSSDYWGQGTLVTVSS
VL: DVVMTQSPLSLPVTLGQPASISCKSSQSLLDSDGKTYLNWLQQRPGQSPRRLIYLVSKLDSGVPDRFSGSGSGTDFTLKISRVEAEDVGVYYCWQGTHFPRTFGGGTKVEIKR
binds: all assays above
